Among the data in PMC12376665 are amino acid content in the liquid culture of yeast co-expressing SlAVT6A and SlAVT6B, relative to SlAVT6A expressed alone and efflux activity for amino acids in yeast co-expressing SlAVT6A and SlAVT6B, compared to only SlAVT6A expressing values, retold here.

This assay addresses SlAVT6A (split-ubiquitin bait fusion) (tomato (Solanum lycopersicum)).

Chain of SlAVT6A (split-ubiquitin bait fusion) (tomato (Solanum lycopersicum)) (main, as listed by the source): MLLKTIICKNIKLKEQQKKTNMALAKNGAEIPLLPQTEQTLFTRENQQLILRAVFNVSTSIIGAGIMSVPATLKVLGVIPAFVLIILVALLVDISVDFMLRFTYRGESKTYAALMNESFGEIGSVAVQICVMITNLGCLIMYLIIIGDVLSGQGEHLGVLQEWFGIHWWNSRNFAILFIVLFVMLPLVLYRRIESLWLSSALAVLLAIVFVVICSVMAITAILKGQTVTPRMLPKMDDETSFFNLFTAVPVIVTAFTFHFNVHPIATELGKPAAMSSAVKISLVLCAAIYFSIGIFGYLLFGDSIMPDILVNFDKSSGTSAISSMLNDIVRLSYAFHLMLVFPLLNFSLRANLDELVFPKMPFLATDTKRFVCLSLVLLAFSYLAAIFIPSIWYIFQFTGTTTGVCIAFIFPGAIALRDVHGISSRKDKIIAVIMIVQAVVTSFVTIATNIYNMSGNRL

The substance “SlAVT6B (split-ubiquitin prey fusion) (from UniProt A0A3Q7FT69 1-472) (natural protein)” had an amino acid content in the liquid culture of yeast co-expressing SlAVT6A and SlAVT6B, relative to SlAVT6A expressed alone of 21.8%; an efflux activity for amino acids in yeast co-expressing SlAVT6A and SlAVT6B, compared to only SlAVT6A expressing of 65%.
